# Results taken from patent US20160272683A1 (Novo Nordisk, published 2016).
# Numbered stars: 1 amine (or outer) side, 2 acyl side, 3 side chain; on linkers, the order of the positions; unused ones are H or OH. * marks the point of attachment. C20 diacid = O=C(O)CCCCCCCCCCCCCCCCCCC(=O)*; C18 diacid = O=C(O)CCCCCCCCCCCCCCCCC(=O)*; γGlu = O=C(O)[C@H](CCC(=O)[*:2])N[*:1]
# T1: human amylin 3(a) receptor (human calcitonin receptor co-expressed with RAMP-3) (human, UniProt P30988 25-474; O60896 24-148, limits assumed)
# T1 sequence (looked up) 1: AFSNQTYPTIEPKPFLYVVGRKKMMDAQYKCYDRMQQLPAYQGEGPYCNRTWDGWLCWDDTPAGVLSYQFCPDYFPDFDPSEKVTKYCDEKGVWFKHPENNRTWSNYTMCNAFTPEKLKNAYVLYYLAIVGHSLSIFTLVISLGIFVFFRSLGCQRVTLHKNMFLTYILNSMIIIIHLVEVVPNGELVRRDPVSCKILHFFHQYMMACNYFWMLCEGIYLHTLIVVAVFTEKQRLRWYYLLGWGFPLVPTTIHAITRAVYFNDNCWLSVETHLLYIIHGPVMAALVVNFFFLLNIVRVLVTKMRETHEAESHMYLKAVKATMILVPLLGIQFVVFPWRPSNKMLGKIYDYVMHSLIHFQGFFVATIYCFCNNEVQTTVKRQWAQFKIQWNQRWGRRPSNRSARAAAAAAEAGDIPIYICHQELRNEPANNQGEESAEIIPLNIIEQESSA
# T1 sequence (looked up) 2: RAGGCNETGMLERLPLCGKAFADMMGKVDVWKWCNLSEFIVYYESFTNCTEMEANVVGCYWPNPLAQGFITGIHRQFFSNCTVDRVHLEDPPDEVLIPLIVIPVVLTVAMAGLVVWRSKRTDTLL
# T2: human calcitonin receptor (human, UniProt P30988 25-474)
# T2 sequence (looked up): T1 sequence (looked up) 1
# B1: [N-terminal(C20 diacid-gGlu), des1, 9T, 21S, 23Y, 30S, 31G, 33Y]mimylin (peptide)
# peptide: {C20 diacid-γGlu}-ASELSTATLGRLSAELHELSTYPRTETGSGSY-NH2
# SMILES: CC(C)C[C@H](NC(=O)[C@H](CCCNC(=N)N)NC(=O)CNC(=O)[C@H](CC(C)C)NC(=O)[C@@H](NC(=O)[C@H](C)NC(=O)[C@@H](NC(=O)[C@H](CO)NC(=O)[C@H](CC(C)C)NC(=O)[C@H](CCC(=O)O)NC(=O)[C@H](CO)NC(=O)[C@H](C)NC(=O)CC[C@H](NC(=O)CCCCCCCCCCCCCCCCCCC(=O)O)C(=O)O)[C@@H](C)O)[C@@H](C)O)C(=O)N[C@@H](CO)C(=O)N[C@@H](C)C(=O)N[C@@H](CCC(=O)O)C(=O)N[C@@H](CC(C)C)C(=O)N[C@@H](Cc1c[nH]cn1)C(=O)N[C@@H](CCC(=O)O)C(=O)N[C@@H](CC(C)C)C(=O)N[C@@H](CO)C(=O)N[C@H](C(=O)N[C@@H](Cc1ccc(O)cc1)C(=O)N1CCC[C@H]1C(=O)N[C@@H](CCCNC(=N)N)C(=O)N[C@H](C(=O)N[C@@H](CCC(=O)O)C(=O)N[C@H](C(=O)NCC(=O)N[C@@H](CO)C(=O)NCC(=O)N[C@@H](CO)C(=O)N[C@@H](Cc1ccc(O)cc1)C(N)=O)[C@@H](C)O)[C@@H](C)O)[C@@H](C)O
# B2: [N-terminal(C20 diacid-gGlu), des1, 9S, 21S, 23Y, 30S, 31G, 33Y]mimylin (peptide)
# peptide: {C20 diacid-γGlu}-ASELSTASLGRLSAELHELSTYPRTETGSGSY-NH2
# SMILES: CC(C)C[C@H](NC(=O)[C@H](CO)NC(=O)[C@H](C)NC(=O)[C@@H](NC(=O)[C@H](CO)NC(=O)[C@H](CC(C)C)NC(=O)[C@H](CCC(=O)O)NC(=O)[C@H](CO)NC(=O)[C@H](C)NC(=O)CC[C@H](NC(=O)CCCCCCCCCCCCCCCCCCC(=O)O)C(=O)O)[C@@H](C)O)C(=O)NCC(=O)N[C@@H](CCCNC(=N)N)C(=O)N[C@@H](CC(C)C)C(=O)N[C@@H](CO)C(=O)N[C@@H](C)C(=O)N[C@@H](CCC(=O)O)C(=O)N[C@@H](CC(C)C)C(=O)N[C@@H](Cc1c[nH]cn1)C(=O)N[C@@H](CCC(=O)O)C(=O)N[C@@H](CC(C)C)C(=O)N[C@@H](CO)C(=O)N[C@H](C(=O)N[C@@H](Cc1ccc(O)cc1)C(=O)N1CCC[C@H]1C(=O)N[C@@H](CCCNC(=N)N)C(=O)N[C@H](C(=O)N[C@@H](CCC(=O)O)C(=O)N[C@H](C(=O)NCC(=O)N[C@@H](CO)C(=O)NCC(=O)N[C@@H](CO)C(=O)N[C@@H](Cc1ccc(O)cc1)C(N)=O)[C@@H](C)O)[C@@H](C)O)[C@@H](C)O
# B3: [N-terminal(C18 diacid-gGlu), des1, 5V, 9V, 10V, 20V, 30S, 31G]mimylin (peptide)
# peptide: {C18 diacid-γGlu}-ASEVSTAVVGRLSAELHEVATLPRTETGSGSP-NH2
# SMILES: CC(C)C[C@H](NC(=O)[C@H](CCCNC(=N)N)NC(=O)CNC(=O)[C@@H](NC(=O)[C@@H](NC(=O)[C@H](C)NC(=O)[C@@H](NC(=O)[C@H](CO)NC(=O)[C@@H](NC(=O)[C@H](CCC(=O)O)NC(=O)[C@H](CO)NC(=O)[C@H](C)NC(=O)CC[C@H](NC(=O)CCCCCCCCCCCCCCCCC(=O)O)C(=O)O)C(C)C)[C@@H](C)O)C(C)C)C(C)C)C(=O)N[C@@H](CO)C(=O)N[C@@H](C)C(=O)N[C@@H](CCC(=O)O)C(=O)N[C@@H](CC(C)C)C(=O)N[C@@H](Cc1c[nH]cn1)C(=O)N[C@@H](CCC(=O)O)C(=O)N[C@H](C(=O)N[C@@H](C)C(=O)N[C@H](C(=O)N[C@@H](CC(C)C)C(=O)N1CCC[C@H]1C(=O)N[C@@H](CCCNC(=N)N)C(=O)N[C@H](C(=O)N[C@@H](CCC(=O)O)C(=O)N[C@H](C(=O)NCC(=O)N[C@@H](CO)C(=O)NCC(=O)N[C@@H](CO)C(=O)N1CCC[C@H]1C(N)=O)[C@@H](C)O)[C@@H](C)O)[C@@H](C)O)C(C)C
# B4: [N-terminal(C20 diacid-gGlu), des1, 12K, 23Y, 25K, 30S, 31G, 33Y]mimylin (peptide)
# peptide: {C20 diacid-γGlu}-ASELSTAALGKLSAELHELATYPKTETGSGSY-NH2
# SMILES: CC(C)C[C@H](NC(=O)[C@H](C)NC(=O)[C@H](C)NC(=O)[C@@H](NC(=O)[C@H](CO)NC(=O)[C@H](CC(C)C)NC(=O)[C@H](CCC(=O)O)NC(=O)[C@H](CO)NC(=O)[C@H](C)NC(=O)CC[C@H](NC(=O)CCCCCCCCCCCCCCCCCCC(=O)O)C(=O)O)[C@@H](C)O)C(=O)NCC(=O)N[C@@H](CCCCN)C(=O)N[C@@H](CC(C)C)C(=O)N[C@@H](CO)C(=O)N[C@@H](C)C(=O)N[C@@H](CCC(=O)O)C(=O)N[C@@H](CC(C)C)C(=O)N[C@@H](Cc1c[nH]cn1)C(=O)N[C@@H](CCC(=O)O)C(=O)N[C@@H](CC(C)C)C(=O)N[C@@H](C)C(=O)N[C@H](C(=O)N[C@@H](Cc1ccc(O)cc1)C(=O)N1CCC[C@H]1C(=O)N[C@@H](CCCCN)C(=O)N[C@H](C(=O)N[C@@H](CCC(=O)O)C(=O)N[C@H](C(=O)NCC(=O)N[C@@H](CO)C(=O)NCC(=O)N[C@@H](CO)C(=O)N[C@@H](Cc1ccc(O)cc1)C(N)=O)[C@@H](C)O)[C@@H](C)O)[C@@H](C)O
# B5: [N-terminal(C20 diacid-gGlu), des1, 4G, 9V, 23Y, 30S, 31G, 32T, 33Y]mimylin (peptide)
# peptide: {C20 diacid-γGlu}-ASGLSTAVLGRLSAELHELATYPRTETGSGTY-NH2
# SMILES: CC(C)C[C@H](NC(=O)CNC(=O)[C@H](CO)NC(=O)[C@H](C)NC(=O)CC[C@H](NC(=O)CCCCCCCCCCCCCCCCCCC(=O)O)C(=O)O)C(=O)N[C@@H](CO)C(=O)N[C@H](C(=O)N[C@@H](C)C(=O)N[C@H](C(=O)N[C@@H](CC(C)C)C(=O)NCC(=O)N[C@@H](CCCNC(=N)N)C(=O)N[C@@H](CC(C)C)C(=O)N[C@@H](CO)C(=O)N[C@@H](C)C(=O)N[C@@H](CCC(=O)O)C(=O)N[C@@H](CC(C)C)C(=O)N[C@@H](Cc1c[nH]cn1)C(=O)N[C@@H](CCC(=O)O)C(=O)N[C@@H](CC(C)C)C(=O)N[C@@H](C)C(=O)N[C@H](C(=O)N[C@@H](Cc1ccc(O)cc1)C(=O)N1CCC[C@H]1C(=O)N[C@@H](CCCNC(=N)N)C(=O)N[C@H](C(=O)N[C@@H](CCC(=O)O)C(=O)N[C@H](C(=O)NCC(=O)N[C@@H](CO)C(=O)NCC(=O)N[C@H](C(=O)N[C@@H](Cc1ccc(O)cc1)C(N)=O)[C@@H](C)O)[C@@H](C)O)[C@@H](C)O)[C@@H](C)O)C(C)C)[C@@H](C)O
# B6: [N-terminal(C20 diacid-gGlu), 4G, 15Q, 21Q, 23Y, 30S, 31G, 32T, 33Y]mimylin (peptide)
# peptide: {C20 diacid-γGlu}-EASGLSTAALGRLSQELHELQTYPRTETGSGTY-NH2
# SMILES: CC(C)C[C@H](NC(=O)CNC(=O)[C@H](CO)NC(=O)[C@H](C)NC(=O)[C@H](CCC(=O)O)NC(=O)CC[C@H](NC(=O)CCCCCCCCCCCCCCCCCCC(=O)O)C(=O)O)C(=O)N[C@@H](CO)C(=O)N[C@H](C(=O)N[C@@H](C)C(=O)N[C@@H](C)C(=O)N[C@@H](CC(C)C)C(=O)NCC(=O)N[C@@H](CCCNC(=N)N)C(=O)N[C@@H](CC(C)C)C(=O)N[C@@H](CO)C(=O)N[C@@H](CCC(N)=O)C(=O)N[C@@H](CCC(=O)O)C(=O)N[C@@H](CC(C)C)C(=O)N[C@@H](Cc1c[nH]cn1)C(=O)N[C@@H](CCC(=O)O)C(=O)N[C@@H](CC(C)C)C(=O)N[C@@H](CCC(N)=O)C(=O)N[C@H](C(=O)N[C@@H](Cc1ccc(O)cc1)C(=O)N1CCC[C@H]1C(=O)N[C@@H](CCCNC(=N)N)C(=O)N[C@H](C(=O)N[C@@H](CCC(=O)O)C(=O)N[C@H](C(=O)NCC(=O)N[C@@H](CO)C(=O)NCC(=O)N[C@H](C(=O)N[C@@H](Cc1ccc(O)cc1)C(N)=O)[C@@H](C)O)[C@@H](C)O)[C@@H](C)O)[C@@H](C)O)[C@@H](C)O
# B7: [N-terminal(C18 diacid), 9I]mimylin (peptide)
# peptide: {C18 diacid}-EASELSTAILGRLSAELHELATLPRTETGPESP-NH2
# SMILES: CC[C@H](C)[C@H](NC(=O)[C@H](C)NC(=O)[C@@H](NC(=O)[C@H](CO)NC(=O)[C@H](CC(C)C)NC(=O)[C@H](CCC(=O)O)NC(=O)[C@H](CO)NC(=O)[C@H](C)NC(=O)[C@H](CCC(=O)O)NC(=O)CCCCCCCCCCCCCCCCC(=O)O)[C@@H](C)O)C(=O)N[C@@H](CC(C)C)C(=O)NCC(=O)N[C@@H](CCCNC(=N)N)C(=O)N[C@@H](CC(C)C)C(=O)N[C@@H](CO)C(=O)N[C@@H](C)C(=O)N[C@@H](CCC(=O)O)C(=O)N[C@@H](CC(C)C)C(=O)N[C@@H](Cc1c[nH]cn1)C(=O)N[C@@H](CCC(=O)O)C(=O)N[C@@H](CC(C)C)C(=O)N[C@@H](C)C(=O)N[C@H](C(=O)N[C@@H](CC(C)C)C(=O)N1CCC[C@H]1C(=O)N[C@@H](CCCNC(=N)N)C(=O)N[C@H](C(=O)N[C@@H](CCC(=O)O)C(=O)N[C@H](C(=O)NCC(=O)N1CCC[C@H]1C(=O)N[C@@H](CCC(=O)O)C(=O)N[C@@H](CO)C(=O)N1CCC[C@H]1C(N)=O)[C@@H](C)O)[C@@H](C)O)[C@@H](C)O
# How the values were obtained:
# [1] = target: T1, human amylin 3(a) receptor (human …); test: cell-based or functional assay
# [2] = target: T2, human calcitonin receptor; test: cell-based or functional assay
Binder,hAmylin-R funct. EC50 (pM) [1] [pM],hCTR funct. EC50 (pM) [2] [pM]
B1,20,23
B2,17,16
B3,12,6
B4,51,37
B5,67,70
B6,43,23
B7,16,5
